Source: patent US20110123508A1, “INSTRUMENT CLEANER” (NOVAPHARM RESEARCH (AUSTRALIA) PTY. LTD., priority 2008, published 2011)

What was measured:
[1] = tested on: Staphylococcus aureus (ATCC 6538); test: Challenge test of 1:100 diluted cleaners with organic load, Staphylococcus aureus; conditions: cleaner diluted 1:100, organic load, 40±1° C.
[2] = tested on: Pseudomonas aeruginosa ATCC15442; test: Challenge test of 1:100 diluted cleaners with organic load, Pseudomonas aeruginosa
[3] = tested on: Streptococcus mutan; test: Challenge test of 1:100 diluted cleaners with organic load, Streptococcus mutan; conditions: cleaner diluted 1:100, organic load, 40±1° C.

B1: Subtilisin Savinase 16L (protein, UniProt P29600 1-269, looked up)
Subtilisin Savinase: AQSVPWGISRVQAPAAHNRGLTGSGVKVAVLDTGISTHPDLNIRGGASFVPGEPSTQDGNGHGTHVAGTIAALNNSIGVLGVAPSAELYAVKVLGASGSGSVSSIAQGLEWAGNNGMHVANLSLGSPSPSATLEQAVNSATSRGVLVVAASGNSGAGSISYPARYANAMAVGATDQNNNRASFSQYGAGLDIVAPGVNVQSTYPGSTYASLNGTSMATPHVAGAAALVKQKNPSWSNVQIRNHLKNTATSLGSTNLYGSGLVNAEAATR
- Concentration CFU/ml after time, 0 hrs ([1]; 0 hrs (initial)): 4.21E+07 CFU/ml
- Concentration CFU/ml after time, 1 hr ([1]; 1 hr): 1.58E+08 CFU/ml
- Concentration CFU/ml after time, 4 hrs ([1]; 4 hrs): 1.26E+08 CFU/ml
- Concentration CFU/ml after time, 6 hrs ([1]; 6 hrs): 2.00E+08 CFU/ml
- Concentration CFU/ml after time, 24 hrs ([1]; 24 hrs): 7.94E+07 CFU/ml
- Concentration CFU/ml after time, 0 hrs ([2]; 0 hrs (initial), cleaner diluted 1:100, organic load, 40±1° C.): 2.94E+06 CFU/ml
- Concentration CFU/ml after time, 1 hr ([2]; 1 hr, cleaner diluted 1:100, organic load, 40±1° C.): 3.69E+08 CFU/ml
- Concentration CFU/ml after time, 4 hr ([2]; 4 hr, cleaner diluted 1:100, organic load, 40±1° C.): 2.06E+09 CFU/ml
- Concentration CFU/ml after time, 6 hrs ([2]; 6 hrs, cleaner diluted 1:100, organic load, 40±1° C.): 3.80E+09 CFU/ml
- Concentration CFU/ml after time, 24 hrs ([2]; 24 hrs, cleaner diluted 1:100, organic load, 40±1° C.): 1.46E+11 CFU/ml
- reduction of microorganisms by single component alone ([2]; protease or phenoxyethanol alone at the concentrations of diluted A and B): Neither the protease nor the phenoxyethanol alone at these concentrations achieved a reduction
- Concentration CFU/ml after time, 0 hrs ([3]; 0 hrs (initial)): 1.40E+07 CFU/ml
- Concentration CFU/ml after time, 1 hr ([3]; 1 hr): 3.65E+07 CFU/ml
- Concentration CFU/ml after time, 4 hrs ([3]; 4 hrs): 2.00E+06 CFU/ml
- Concentration CFU/ml after time, 6 hrs ([3]; 6 hrs): 1.60E+06 CFU/ml
- Concentration CFU/ml after time, 24 hrs ([3]; 24 hrs): 1.16E+06 CFU/ml
